The record followed here is article PMC10518940.

In this test the target is T1, HA-CXCR4-Rluc8 (human), P61073.
T1 chain: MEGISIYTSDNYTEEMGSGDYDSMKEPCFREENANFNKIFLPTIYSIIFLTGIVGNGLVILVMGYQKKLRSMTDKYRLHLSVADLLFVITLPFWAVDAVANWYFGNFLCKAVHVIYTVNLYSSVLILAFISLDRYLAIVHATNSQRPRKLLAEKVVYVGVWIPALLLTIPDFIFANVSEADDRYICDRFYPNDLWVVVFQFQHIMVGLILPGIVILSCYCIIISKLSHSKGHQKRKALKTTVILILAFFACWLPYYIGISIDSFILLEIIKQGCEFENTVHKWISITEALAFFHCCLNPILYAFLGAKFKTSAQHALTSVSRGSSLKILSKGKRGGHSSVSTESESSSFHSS
Put plainly: FRET or BRET; BRET2 saturation in HEK293A cells: fixed amount of GPCR-Rluc8 plasmid, increasing amounts of GPCR-GFP2 plasmid (0 to 390 ng); coelenterazine 400a 5 μM; BRET50 from the net BRET ratio. The settings on record: remark: other sources report otherwise. A general note: In BRET a luciferase serves as donor, and the signal depends on an acceptor being close.

B1: CXCR4-GFP2, P61073 1-352 (receptor)
chain: MEGISIYTSDNYTEEMGSGDYDSMKEPCFREENANFNKIFLPTIYSIIFLTGIVGNGLVILVMGYQKKLRSMTDKYRLHLSVADLLFVITLPFWAVDAVANWYFGNFLCKAVHVIYTVNLYSSVLILAFISLDRYLAIVHATNSQRPRKLLAEKVVYVGVWIPALLLTIPDFIFANVSEADDRYICDRFYPNDLWVVVFQFQHIMVGLILPGIVILSCYCIIISKLSHSKGHQKRKALKTTVILILAFFACWLPYYIGISIDSFILLEIIKQGCEFENTVHKWISITEALAFFHCCLNPILYAFLGAKFKTSAQHALTSVSRGSSLKILSKGKRGGHSSVSTESESSSFHSS
With B1, the BRET50 worked out at 0.244.
